Measurements: article PMC7506556, “Structure and function of bacteriophage CBA120 ORF211 (TSP2), the determinant of phage specificity towards E. coli O157:H7” (Scientific Reports, 2020)

B1: E456A:E483A TSP1 (enzyme)
chain: MNEMFSQGGKGSTGILTNKQAVARHFGVKQSEVVYFSVGVDLGGYKVIYDKETQRAYSLPVGIASGTTAVSLSTAAVLVHSAGSVDLGSLAVSREEYVTLPGSFDSGSTLNVKNELLTYTDGKYRWDGILPKTVAPGSTPASTGGVGLGAWISVGDASLRTQLANGDGSLIGIHPQGTLNNVLTVRTPEQYNAVGDGIADDTSKLKEMLSDINNVPETLPDAAAVNSYMEQVAVKIDLTKLYRFTETLYIPPGVSIEIPTSNFFTRECKQGLFYDPVDKNTAAISLMVYRKQPDGSYKLNKDVDYYPTGLDIDNGDAITCARKIDINNLNLITAPGVKVGVKWIGGAGCTTKGLSIGENTGSDITTARLPRVGLLQSASWGSIHENLRILYKTQGAVFIDSNGGAAVNNAYISRLGNTNGELEQAVYKPAGFTEVGDVAVTQFAGSEVKFNSPIIAQASFDFVHAGRDTDSYGLFMVDKPHIASSGGKKKHSFYLINTSSNVTLSGVGLSGQDPDLDSMYFLKNCPETARNVVRGQMPISGVKLVRGTGNYPTLVLDCTNMGSQFQFGEVGDIFYIKDVVGVKADTLYIDPVNGNNYNWGTNGTKPIRELTNIAKICQLFRCKSVYLNAGESVITSNTELPMVVFEGPGSLKANSGSSFLIKAGGTLSLIGLSGISTDGGHMFRVSTVEKVNIHTNCSVNAGAAYVVLSEVQGNIEYRQLFYSVNCSKYIGATAGQTIAGIMVKTATRPTGIDAAPVDGNVSLTYKIIES
notes: source: E. coli BL21(DE3), purified similar to wild type TSPs
B2: D313N:E456Q:E483Q TSP1 (enzyme)
chain: MNEMFSQGGKGSTGILTNKQAVARHFGVKQSEVVYFSVGVDLGGYKVIYDKETQRAYSLPVGIASGTTAVSLSTAAVLVHSAGSVDLGSLAVSREEYVTLPGSFDSGSTLNVKNELLTYTDGKYRWDGILPKTVAPGSTPASTGGVGLGAWISVGDASLRTQLANGDGSLIGIHPQGTLNNVLTVRTPEQYNAVGDGIADDTSKLKEMLSDINNVPETLPDAAAVNSYMEQVAVKIDLTKLYRFTETLYIPPGVSIEIPTSNFFTRECKQGLFYDPVDKNTAAISLMVYRKQPDGSYKLNKDVDYYPTGLDINNGDAITCARKIDINNLNLITAPGVKVGVKWIGGAGCTTKGLSIGENTGSDITTARLPRVGLLQSASWGSIHENLRILYKTQGAVFIDSNGGAAVNNAYISRLGNTNGELEQAVYKPAGFTEVGDVAVTQFAGSEVKFNSPIIQQASFDFVHAGRDTDSYGLFMVDKPHIQSSGGKKKHSFYLINTSSNVTLSGVGLSGQDPDLDSMYFLKNCPETARNVVRGQMPISGVKLVRGTGNYPTLVLDCTNMGSQFQFGEVGDIFYIKDVVGVKADTLYIDPVNGNNYNWGTNGTKPIRELTNIAKICQLFRCKSVYLNAGESVITSNTELPMVVFEGPGSLKANSGSSFLIKAGGTLSLIGLSGISTDGGHMFRVSTVEKVNIHTNCSVNAGAAYVVLSEVQGNIEYRQLFYSVNCSKYIGATAGQTIAGIMVKTATRPTGIDAAPVDGNVSLTYKIIES
notes: as for B1
B3: E456Q:E483Q TSP1 (enzyme)
chain: MNEMFSQGGKGSTGILTNKQAVARHFGVKQSEVVYFSVGVDLGGYKVIYDKETQRAYSLPVGIASGTTAVSLSTAAVLVHSAGSVDLGSLAVSREEYVTLPGSFDSGSTLNVKNELLTYTDGKYRWDGILPKTVAPGSTPASTGGVGLGAWISVGDASLRTQLANGDGSLIGIHPQGTLNNVLTVRTPEQYNAVGDGIADDTSKLKEMLSDINNVPETLPDAAAVNSYMEQVAVKIDLTKLYRFTETLYIPPGVSIEIPTSNFFTRECKQGLFYDPVDKNTAAISLMVYRKQPDGSYKLNKDVDYYPTGLDIDNGDAITCARKIDINNLNLITAPGVKVGVKWIGGAGCTTKGLSIGENTGSDITTARLPRVGLLQSASWGSIHENLRILYKTQGAVFIDSNGGAAVNNAYISRLGNTNGELEQAVYKPAGFTEVGDVAVTQFAGSEVKFNSPIIQQASFDFVHAGRDTDSYGLFMVDKPHIQSSGGKKKHSFYLINTSSNVTLSGVGLSGQDPDLDSMYFLKNCPETARNVVRGQMPISGVKLVRGTGNYPTLVLDCTNMGSQFQFGEVGDIFYIKDVVGVKADTLYIDPVNGNNYNWGTNGTKPIRELTNIAKICQLFRCKSVYLNAGESVITSNTELPMVVFEGPGSLKANSGSSFLIKAGGTLSLIGLSGISTDGGHMFRVSTVEKVNIHTNCSVNAGAAYVVLSEVQGNIEYRQLFYSVNCSKYIGATAGQTIAGIMVKTATRPTGIDAAPVDGNVSLTYKIIES
notes: as for B1
B4: bacteriophage CBA120 ORF211 (TSP2), wild type (enzyme, UniProt G3M190 1-921, looked up)
chain: MTRNVEELFGGVITAPHQIPFTYKSNVGGETFLSLPFYPVTGVVTINGGMQVPLDNFEIEGNTLNLGRALSKGDVVYCLFDKILSPEDTAKGIRIYKFQAVGGETEFTPDFTSYGVQSLYIGGEYKTPEIEYSYDSTTGKVSLQTALSAGVWVVAEMSVKQPNISPAFDRSIQEIARSANVKDSEVIVSTDTISLLDGKKVVYDIATQTSYGLPTIPDGSVISSVSAGKLNYNPGDVQVDLLPLEDSFINVINTLGRNDGAKYIGECHSVADLRNTEPTMDGQRIILKQHTAGTLLGGGVFRALIDGTGKTDNNGTVIKTVGGAAWLRVNADRVNPFMFGALGGSNDDTIPVQSCVDSGKATQLTDAHYVSNIQLKYNTSSIYGSGLHYSRLHQLPSATGNCITIKDTCSLIVLDAFGVYGTGAQQGTSFTAGTTGIYVETPSGLSADYPFHTTADPRRDLCISKVHIAGFDEYGLNIDSGNFSVTTDSLLVNHINQVGVRCATTDWTWTNIQVNTCGKQCLVLDGCGNGRIIGGKFIWANWQPYGTVGQFPGITINNSQNMVINGIEVQDCGGNGIEISESYSISMNGLNTNRNGINANNTFYNIVFNKSDAVINGFVGLNYAANSGSGANSSAGNFQFLSNDCSVTINGVVETGYMGINFIGDNNIINPTNSDLSINGLVNYSKTGLQTMNETPTFDGVSTTPVYVSVPSSVGQVNGLRLSQANKDKLLYSRTAGPEGITMAAVIVPTISGAEVFNFMAIGSGFSDTSNSLHLQLVIDASGKQTIALLLGGDGTTQILSGDLPNDLKLQSGVPYHIAIGAKPGYFWWSILNIQTGKRIRRSFRGAYLAVPFNSIFGLTSSLTFFSDSNAGGDACSGVGAKVYVGMFSSENDYVASRYYNLINPVDPTKLISYRILDSSI
notes: 921-residue polypeptide chain; gene codon optimized for E. coli; residues 1-168 have no electron density in the crystal; Calculated monomer mass 99,054 Da with the 6X-His tag; also called tailspike protein 2; wild-type TSP2; source: E. coli Rosetta-gami 2 (pBAD24), purified (Ni-NTA); not shown: 6X-His, C-terminal, kept
B5: TSP2 D506N:D571N:Y623A mutant (enzyme, UniProt G3M190 1-921, looked up)
chain: MTRNVEELFGGVITAPHQIPFTYKSNVGGETFLSLPFYPVTGVVTINGGMQVPLDNFEIEGNTLNLGRALSKGDVVYCLFDKILSPEDTAKGIRIYKFQAVGGETEFTPDFTSYGVQSLYIGGEYKTPEIEYSYDSTTGKVSLQTALSAGVWVVAEMSVKQPNISPAFDRSIQEIARSANVKDSEVIVSTDTISLLDGKKVVYDIATQTSYGLPTIPDGSVISSVSAGKLNYNPGDVQVDLLPLEDSFINVINTLGRNDGAKYIGECHSVADLRNTEPTMDGQRIILKQHTAGTLLGGGVFRALIDGTGKTDNNGTVIKTVGGAAWLRVNADRVNPFMFGALGGSNDDTIPVQSCVDSGKATQLTDAHYVSNIQLKYNTSSIYGSGLHYSRLHQLPSATGNCITIKDTCSLIVLDAFGVYGTGAQQGTSFTAGTTGIYVETPSGLSADYPFHTTADPRRDLCISKVHIAGFDEYGLNIDSGNFSVTTDSLLVNHINQVGVRCATTNWTWTNIQVNTCGKQCLVLDGCGNGRIIGGKFIWANWQPYGTVGQFPGITINNSQNMVINGIEVQNCGGNGIEISESYSISMNGLNTNRNGINANNTFYNIVFNKSDAVINGFVGLNAAANSGSGANSSAGNFQFLSNDCSVTINGVVETGYMGINFIGDNNIINPTNSDLSINGLVNYSKTGLQTMNETPTFDGVSTTPVYVSVPSSVGQVNGLRLSQANKDKLLYSRTAGPEGITMAAVIVPTISGAEVFNFMAIGSGFSDTSNSLHLQLVIDASGKQTIALLLGGDGTTQILSGDLPNDLKLQSGVPYHIAIGAKPGYFWWSILNIQTGKRIRRSFRGAYLAVPFNSIFGLTSSLTFFSDSNAGGDACSGVGAKVYVGMFSSENDYVASRYYNLINPVDPTKLISYRILDSSI
notes: Made by Q5 site-directed mutagenesis of the TSP2 plasmid; source: E. coli BL21(DE3), purified similar to wild type TSPs

Legend:
[1] = target: the molecule itself; assay: not stated; purified TSP1 site-directed mutants; how the trimeric state was shown is not told
[2] = target: the molecule itself; assay: crystal structure; sitting drops, vapor diffusion, room temperature, 0.8 M ammonium sulfate, 0.1 M HEPES pH 7.0; 1.9 Å; two homotrimers in the asymmetric unit
[3] = target: the molecule itself; assay: not stated; purified TSP2 site-directed mutants; how the trimeric state was shown is not told

| Protein | stoichiometry N [1] | further results |
| --- | --- | --- |
| B1 | 3 | – |
| B2 | 3 | – |
| B3 | 3 | – |
| B4 | – | stoichiometry N [2]: 3 |
| B5 | – | stoichiometry N [3]: 3 |
